From PMC5511190

B1: WD repeat-containing protein 1 (natural protein)
chain: MPYEIKKVFASLPQVERGVSKILGGDPKGDHFLYTNGKCVILRNIDNPAIADIYTEHAHQVVVAKYAPSGFYIASGDISGKLRIWDTTQKEHLLKYEYQPFAGKIKDIAWTEDSKRIAVVGEGREKFGAVFLWDTGSSVGEITGHNKVINSVDIKQTRPYRLATGSDDNCAAFFEGPPFKFKFTIGDHSRFVNCVRFSPDGNRFATASADGQIFIYDGKTGEKVCALGESKAHDGGIYAISWSPDSTHLLSASGDKTSKIWDVNVNSVVSTFPMGSNVLDQQLGCLWQKDHLLSISLSGYINYLDKNNPSKPLRVIKGHSKSIQCLTVHRNGGKSYIYSGSHDGHINYWDSETGENDSFSGKGHTNQVSRMTVNESEQLVSCSMDDTVRYTNLTLRDYSGQGVVKLDVQPKCVAVGPGGYTVVVCIGQIVLLKDQKKCFSIDNPGYEPEVVAVHPGGDTVAVGGTDGNVRVYSILASTLKDEGKLLEAKGPVTDVAYSHDGAFLAVCDASKVVTVFSVADGYSENNVFYGHHAKIVCLAWSPDNEHFASGGMDMMVYVWTLSDPETKVKIQDAHRLHHVSSLAWLDEHTLVTTSHDASVKEWTITY
B2: Guanine deaminase (natural protein)
chain: MCAARTPPLALVFRGTFVHSTWTCPMEVLRDHLLGVSDSGKIVFLEESSQQEKLAKEWCFKPCEIRELSHHEFFMPGLVDTHIHAPQYAFAGSNVDLPLLEWLNKYTFPTEQRFRSTDVAEEVYTRVVRRTLKNGTTTACYFGTIHTDSSLILAEITDKFGQRAFVGKVCMDLNDTVPEYKETTEESVKETERFVSEMLQKNYPRVKPIVTPRFTLSCTETLMSELGNIAKTHDLYIQSHISENREEIEAVKSLYPSYKNYTDVYDKNNLLTNKTVMAHGCYLSEEELNIFSERGASIAHCPNSNLSLSSGLLNVLEVLKHKVKIGLGTDVAGGYSYSMLDAIRRAVMVSNVLLINKVNEKNLTLKEVFRLATLGGSQALGLDSEIGNFEVGKEFDALLINPRASDSPIDLFYGDFVGDISEAVIQKFLYLGDDRNIEEVYVGGKQVVPFSSSV
B3: 14-3-3 protein theta (natural protein)
chain: MEKTELIQKAKLAEQAERYDDMATCMKAVTEQGAELSNEERNLLSVAYKNVVGGRRSAWRVISSIEQKTDTSDKKLQLIKDYREKVESELRSICTTVLELLDKYLIANATNPESKVFYLKMKGDYFRYLAEVACGDDRKQTIENSQGAYQEAFDISKKEMQPTHPIRLGLALNFSVFYYEILNNPELACTLAKTAFDEAIAELDTLNEDSYKDSTLIMQLLRDNLTLWTSDSAGEECDAAEGAEN
B4: 14-3-3 protein beta/alpha (natural protein)
chain: MTMDKSELVQKAKLAEQAERYDDMAAAMKAVTEQGHELSNEERNLLSVAYKNVVGARRSSWRVISSIEQKTERNEKKQQMGKEYREKIEAELQDICNDVLELLDKYLILNATQAESKVFYLKMKGDYFRYLSEVASGENKQTTVSNSQQAYQEAFEISKKEMQPTHPIRLGLALNFSVFYYEILNSPEKACSLAKTAFDEAIAELDTLNEESYKDSTLIMQLLRDNLTLWTSENQGDEGDAGEGEN
B5: 14-3-3 protein eta (natural protein)
chain: MGDREQLLQRARLAEQAERYDDMASAMKAVTELNEPLSNEDRNLLSVAYKNVVGARRSSWRVISSIEQKTMADGNEKKLEKVKAYREKIEKELETVCNDVLALLDKFLIKNCNDFQYESKVFYLKMKGDYYRYLAEVASGEKKNSVVEASEAAYKEAFEISKEHMQPTHPIRLGLALNFSVFYYEIQNAPEQACLLAKQAFDDAIAELDTLNEDSYKDSTLIMQLLRDNLTLWTSDQQDEEAGEGN
B6: CaM kinase-like vesicle-associated protein (natural protein)
chain: MPFGCVTLGDKKNYNQPSEVTDRYDLGQVIKTEEFCEIFRAKDKTTGKLHTCKKFQKRDGRKVRKAAKNEIGILKMVKHPNILQLVDVFVTRKEYFIFLELATGREVFDWILDQGYYSERDTSNVVRQVLEAVAYLHSLKIVHRNLKLENLVYYNRLKNSKIVISDFHLAKLENGLIKEPCGTPEYLAPEVVGRQRYGRPVDCWAIGVIMYILLSGNPPFYEEVEEDDYENHDKNLFRKILAGDYEFDSPYWDDISQAAKDLVTRLMEVEQDQRITAEEAISHEWISGNAASDKNIKDGVCAQIEKNFARAKWKKAVRVTTLMKRLRAPEQSGTAATQSASDAATPGAAGGAIAAAAAAAAAGGAASASGASATAATEGGAGCAAKSDDIASADRSATPATDGSATPATDGSVTPATDGSITPATDGSVTPATDRSATPATDGRATPATEESTVPATQSSALPAAKAAATPEPAVAQPDSTALEGATGQAPPSSKGEEATGCAQESQRVETS
B7: Profilin-2 (natural protein)
chain: MAGWQSYVDNLMCDGCCQEAAIVGYCDAKYVWAATAGGVFQSITPVEIDMIVGKDREGFFTNGLTLGAKKCSVIRDSLYVDGDCTMDIRTKSQGGEPTYNVAVGRAGRVLVFVMGKEGVHGGGLNKKAYSMAKYLRDSGF

Each binder was assayed against GST-LRRK2 WD40 G2385R (human) (UniProt Q5S007) (assay: affinity purification with mass spectrometry; 5 µg GST fusion protein on glutathione-Sepharose incubated with adult mouse brain lysate or crude SV fraction (LP2) (1 mg protein) 2 h at 4 °C; washes 150 mM NaCl, 2 mM EDTA, 50 mM Tris-HCl, 0.2% Triton, pH 7.4; LC-MS/MS with label-free quantification, 4 samples per condition (GST-control, GST-WD40, GST-WD40-G2385R)).
GST-LRRK2 WD40 G2385R (human), sequence (Q5S007 whole entry G2385R, the tested form may be a part): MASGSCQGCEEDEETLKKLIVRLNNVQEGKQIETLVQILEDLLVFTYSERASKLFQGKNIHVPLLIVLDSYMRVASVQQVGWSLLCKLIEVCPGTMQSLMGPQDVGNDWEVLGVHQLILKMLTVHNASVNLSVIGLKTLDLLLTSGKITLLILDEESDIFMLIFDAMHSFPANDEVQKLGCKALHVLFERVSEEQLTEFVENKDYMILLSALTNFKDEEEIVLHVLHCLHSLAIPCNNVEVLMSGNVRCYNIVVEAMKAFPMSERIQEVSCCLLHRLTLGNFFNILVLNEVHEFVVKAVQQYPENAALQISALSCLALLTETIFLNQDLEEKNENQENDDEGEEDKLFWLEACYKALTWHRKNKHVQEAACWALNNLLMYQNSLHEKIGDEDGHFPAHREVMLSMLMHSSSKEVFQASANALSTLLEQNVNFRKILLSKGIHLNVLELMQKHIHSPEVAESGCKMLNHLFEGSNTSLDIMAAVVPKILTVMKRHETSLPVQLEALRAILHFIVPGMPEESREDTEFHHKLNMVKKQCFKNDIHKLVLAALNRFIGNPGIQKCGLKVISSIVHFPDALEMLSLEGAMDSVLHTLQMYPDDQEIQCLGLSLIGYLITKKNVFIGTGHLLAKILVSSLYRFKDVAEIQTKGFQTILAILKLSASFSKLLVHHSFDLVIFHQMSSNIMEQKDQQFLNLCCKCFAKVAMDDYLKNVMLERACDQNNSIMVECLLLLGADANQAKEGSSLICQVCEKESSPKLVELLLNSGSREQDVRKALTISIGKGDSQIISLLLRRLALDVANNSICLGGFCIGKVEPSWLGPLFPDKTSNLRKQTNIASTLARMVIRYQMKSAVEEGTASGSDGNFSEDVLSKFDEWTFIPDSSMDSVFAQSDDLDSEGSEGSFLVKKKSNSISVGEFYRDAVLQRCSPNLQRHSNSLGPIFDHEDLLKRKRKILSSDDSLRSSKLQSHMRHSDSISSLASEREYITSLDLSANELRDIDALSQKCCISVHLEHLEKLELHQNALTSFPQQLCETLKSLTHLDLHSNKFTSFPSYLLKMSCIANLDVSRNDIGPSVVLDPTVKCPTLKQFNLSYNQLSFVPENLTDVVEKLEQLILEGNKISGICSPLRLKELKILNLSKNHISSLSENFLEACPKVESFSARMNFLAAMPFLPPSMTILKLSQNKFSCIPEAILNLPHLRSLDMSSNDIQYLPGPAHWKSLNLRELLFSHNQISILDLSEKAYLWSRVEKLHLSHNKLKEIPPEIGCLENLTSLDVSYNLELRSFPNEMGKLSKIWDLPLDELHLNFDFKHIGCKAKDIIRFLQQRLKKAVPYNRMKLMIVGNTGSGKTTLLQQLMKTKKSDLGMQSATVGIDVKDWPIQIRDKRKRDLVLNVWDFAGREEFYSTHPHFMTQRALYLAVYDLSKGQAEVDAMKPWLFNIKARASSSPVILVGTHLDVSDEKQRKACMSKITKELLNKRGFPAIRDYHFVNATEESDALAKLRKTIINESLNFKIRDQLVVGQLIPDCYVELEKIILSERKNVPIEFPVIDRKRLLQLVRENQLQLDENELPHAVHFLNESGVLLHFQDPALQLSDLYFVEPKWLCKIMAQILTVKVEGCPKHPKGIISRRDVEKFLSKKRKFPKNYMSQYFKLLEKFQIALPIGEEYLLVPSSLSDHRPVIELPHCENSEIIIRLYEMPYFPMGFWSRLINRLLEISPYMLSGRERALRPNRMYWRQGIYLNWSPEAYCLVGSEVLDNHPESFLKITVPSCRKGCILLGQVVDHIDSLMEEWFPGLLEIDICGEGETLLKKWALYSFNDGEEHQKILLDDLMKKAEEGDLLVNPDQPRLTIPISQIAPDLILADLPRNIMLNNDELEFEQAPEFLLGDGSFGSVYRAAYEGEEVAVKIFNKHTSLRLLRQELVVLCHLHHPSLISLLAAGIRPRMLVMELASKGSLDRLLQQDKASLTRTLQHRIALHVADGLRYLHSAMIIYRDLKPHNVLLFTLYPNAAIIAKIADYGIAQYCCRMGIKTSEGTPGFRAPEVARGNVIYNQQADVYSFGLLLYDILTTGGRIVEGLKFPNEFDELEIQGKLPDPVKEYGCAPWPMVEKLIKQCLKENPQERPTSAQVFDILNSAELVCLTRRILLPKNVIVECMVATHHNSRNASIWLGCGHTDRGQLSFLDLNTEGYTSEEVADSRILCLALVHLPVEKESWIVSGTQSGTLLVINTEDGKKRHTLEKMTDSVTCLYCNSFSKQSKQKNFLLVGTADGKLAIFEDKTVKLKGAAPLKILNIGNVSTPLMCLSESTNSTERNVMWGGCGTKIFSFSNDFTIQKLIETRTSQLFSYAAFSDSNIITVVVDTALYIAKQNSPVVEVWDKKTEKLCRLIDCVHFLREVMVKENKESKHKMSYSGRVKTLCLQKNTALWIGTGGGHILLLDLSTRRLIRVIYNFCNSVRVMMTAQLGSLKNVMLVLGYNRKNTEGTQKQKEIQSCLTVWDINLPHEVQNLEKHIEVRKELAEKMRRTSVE
B1 gave a G2385R/WT (ratio of abundance in G2385R versus wild-type bait) of 0.34.
For B2, the G2385R/WT (ratio of abundance in G2385R versus wild-type bait) was 0.15.
B3 was tested, and the G2385R/WT (ratio of abundance in G2385R versus wild-type bait) was 0.35.
B4 showed a G2385R/WT (ratio of abundance in G2385R versus wild-type bait) of 0.37.
Binder B5 has a G2385R/WT (ratio of abundance in G2385R versus wild-type bait) of 0.52.
In the case of B6, the G2385R/WT (ratio of abundance in G2385R versus wild-type bait) is reported as 0.58.
B7 was tested, and the G2385R/WT (ratio of abundance in G2385R versus wild-type bait) was 0.37.
